Data as given in patent publication US20240101654A1 (NEURIMMUNE, published 2024).
Each block holds one binder with its values, some of them ahead of it.

Molecular target: AD-associated Tau in brain extracts of patients with AD (human, UniProt P10636-8 2-441, limits assumed, pathologically modified (sites not given))
Assay: cell-based or functional assay

AD-associated Tau in brain extracts of patients with AD, sequence (P10636 other isoform, or with tags, fused parts or gaps limits assumed): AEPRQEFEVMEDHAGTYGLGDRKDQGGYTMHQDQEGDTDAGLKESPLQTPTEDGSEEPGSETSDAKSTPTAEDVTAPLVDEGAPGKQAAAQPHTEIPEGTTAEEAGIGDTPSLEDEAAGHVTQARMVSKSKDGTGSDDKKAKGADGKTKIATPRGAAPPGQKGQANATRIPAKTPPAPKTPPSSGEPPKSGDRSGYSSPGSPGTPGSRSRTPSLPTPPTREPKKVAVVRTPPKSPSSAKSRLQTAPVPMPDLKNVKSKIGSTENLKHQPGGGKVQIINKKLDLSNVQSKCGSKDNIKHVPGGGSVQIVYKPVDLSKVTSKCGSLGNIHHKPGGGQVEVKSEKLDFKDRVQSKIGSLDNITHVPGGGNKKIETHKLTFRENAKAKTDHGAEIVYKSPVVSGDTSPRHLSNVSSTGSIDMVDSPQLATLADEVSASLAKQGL

IC50 of Tau aggregation (FRET) in HEK293T Tau biosensor cells seeded with immunodepleted AD brain homogenate: 6.5 µg/mL
B1: NI-502.4P3 (antibody, V domains shown)
VH: EVQLVQSGAEVKKPGESLKISCKVSGYDFSKYWIGWVRQMPGKGLEWMGLIYPGDSDTRYSPSLEGQVSISADKSISAAYLQFSSLKASDSAMYYCVRKGYSAYLGGWFDPWGQGTLVTVSS
VL: DIQLTQSPDSLAASLGERVTINCRSSQNIFYNSNNKNFLAWYQQKAGQSPKLLIYWASTRESGVPDRFSGSGSGTDFTLTISGLQAGDVAVYFCQQYFTDAPTFGGGTKVEIK

IC50 of Tau aggregation (FRET) in HEK293T Tau biosensor cells seeded with immunodepleted AD brain homogenate: 7.1 µg/mL
B2: NI-502.8H1 (antibody, V domains shown)
VH: EVQLVESGGGLVQPGGSLRLSCAASGFTFSIYTMSWVRQAPGKGLEWVSAILSDGSTYYADSVEGRFTISRDNSKTTLYLQMNSLTAEDTAVYYCTKRVEGSFRGWGQGTLVTVSS
VL: EIVMTQSPGTLSLSPGESATLSCRASQSVSTTYLAWYQQKPGQAPRLLIYGASSRATGIPDRFSGSGSGTDFTLTISRLEPEDFAVYYCQQYGGSRLITFGQGTRLEIK
